Laboratory results as given in paper PMC7937191 (Biochemical and biophysical research communications, 2020).

Molecular target: CXCR4-RLuc (chemokine (C-X-C motif) receptor 4 with Renilla reniformis luciferase at the C-terminus) (UniProt P61073 1-352)
Assay: FRET or BRET

Chain of CXCR4-RLuc (chemokine (C-X-C motif) receptor 4 with Renilla reniformis luciferase at the C-terminus) (P61073 whole entry): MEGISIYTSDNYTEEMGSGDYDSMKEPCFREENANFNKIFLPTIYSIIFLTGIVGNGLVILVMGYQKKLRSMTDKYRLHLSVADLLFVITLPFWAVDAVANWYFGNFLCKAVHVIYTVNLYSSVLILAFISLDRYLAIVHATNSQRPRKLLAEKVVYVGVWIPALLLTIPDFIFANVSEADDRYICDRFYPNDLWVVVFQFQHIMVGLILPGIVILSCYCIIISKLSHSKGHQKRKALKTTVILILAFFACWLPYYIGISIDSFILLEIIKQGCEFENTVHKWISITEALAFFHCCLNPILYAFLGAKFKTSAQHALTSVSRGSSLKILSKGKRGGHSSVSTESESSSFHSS

B1: α1b-AR-EYFP (α1b-adrenergic receptor with enhanced yellow fluorescent protein at the C-terminus) (receptor, UniProt P35368 1-520, looked up)
chain: MNPDLDTGHNTSAPAHWGELKNANFTGPNQTSSNSTLPQLDITRAISVGLVLGAFILFAIVGNILVILSVACNRHLRTPTNYFIVNLAMADLLLSFTVLPFSAALEVLGYWVLGRIFCDIWAAVDVLCCTASILSLCAISIDRYIGVRYSLQYPTLVTRRKAILALLSVWVLSTVISIGPLLGWKEPAPNDDKECGVTEEPFYALFSSLGSFYIPLAVILVMYCRVYIVAKRTTKNLEAGVMKEMSNSKELTLRIHSKNFHEDTLSSTKAKGHNPRSSIAVKLFKFSREKKAAKTLGIVVGMFILCWLPFFIALPLGSLFSTLKPPDAVFKVVFWLGYFNSCLNPIIYPCSSKEFKRAFVRILGCQCRGRGRRRRRRRRRLGGCAYTYRPWTRGGSLERSQSRKDSLDDSGSCLSGSQRTLPSASPSPGYLGRGAPPPVELCAFPEWKAPGALLSLPAPEPPGRRGRHDSGPLFTFKLLTEPESPGTDGGASNGGCEAAADVANGQPGFKSNMPLAPGQF
  BRET50 (EYFP/Lum): 0.072 EYFP/Lum

B2: α1d-AR-EYFP (α1d-adrenergic receptor with enhanced yellow fluorescent protein at the C-terminus) (receptor, UniProt P25100 1-572, looked up)
chain: MTFRDLLSVSFEGPRPDSSAGGSSAGGGGGSAGGAAPSEGPAVGGVPGGAGGGGGVVGAGSGEDNRSSAGEPGSAGAGGDVNGTAAVGGLVVSAQGVGVGVFLAAFILMAVAGNLLVILSVACNRHLQTVTNYFIVNLAVADLLLSATVLPFSATMEVLGFWAFGRAFCDVWAAVDVLCCTASILSLCTISVDRYVGVRHSLKYPAIMTERKAAAILALLWVVALVVSVGPLLGWKEPVPPDERFCGITEEAGYAVFSSVCSFYLPMAVIVVMYCRVYVVARSTTRSLEAGVKRERGKASEVVLRIHCRGAATGADGAHGMRSAKGHTFRSSLSVRLLKFSREKKAAKTLAIVVGVFVLCWFPFFFVLPLGSLFPQLKPSEGVFKVIFWLGYFNSCVNPLIYPCSSREFKRAFLRLLRCQCRRRRRRRPLWRVYGHHWRASTSGLRQDCAPSSGDAPPGAPLALTALPDPDPEPPGTPEMQAPVASRRKPPSAFREWRLLGPFRRPTTQLRAKVSSLSHKIRAGGAQRAEAACAQRSEVEAVSLGVPHEVAEGATCQAYELADYSNLRETDI
  BRET50 (EYFP/Lum): 0.051 EYFP/Lum

B3: α1a-AR-EYFP (α1a-adrenergic receptor with enhanced yellow fluorescent protein at the C-terminus) (receptor, UniProt P35348 1-466, looked up)
chain: MVFLSGNASDSSNCTQPPAPVNISKAILLGVILGGLILFGVLGNILVILSVACHRHLHSVTHYYIVNLAVADLLLTSTVLPFSAIFEVLGYWAFGRVFCNIWAAVDVLCCTASIMGLCIISIDRYIGVSYPLRYPTIVTQRRGLMALLCVWALSLVISIGPLFGWRQPAPEDETICQINEEPGYVLFSALGSFYLPLAIILVMYCRVYVVAKRESRGLKSGLKTDKSDSEQVTLRIHRKNAPAGGSGMASAKTKTHFSVRLLKFSREKKAAKTLGIVVGCFVLCWLPFFLVMPIGSFFPDFKPSETVFKIVFWLGYLNSCINPIIYPCSSQEFKKAFQNVLRIQCLCRKQSSKHALGYTLHPPSQAVEGQHKDMVRIPVGSRETFYRISKTDGVCEWKFFSSMPRGSARITVSKDQSSCTTARVRSKSFLQVCCCVGPSTPSLDKNHQVPTIKVHTISLSENGEEV
  BRET50 (EYFP/Lum): 0.055 EYFP/Lum
